Earlier results as cited in patent US20080213253A1, “COMBINATION THERAPY FOR THE TREATMENT OF CANCER” (DYAX CORP., priority 2007, published 2008).

Columns and labels:
[1] = biological target: Tie complex (Tie1 and Tie2) (Homo sapiens, UniProt P35590); conditions: statement in words, no data shown
[2] = biological target: Tie1 (Homo sapiens, UniProt P35590); conditions: statement in words, no data shown
Tie1, sequence (P35590 22-1138): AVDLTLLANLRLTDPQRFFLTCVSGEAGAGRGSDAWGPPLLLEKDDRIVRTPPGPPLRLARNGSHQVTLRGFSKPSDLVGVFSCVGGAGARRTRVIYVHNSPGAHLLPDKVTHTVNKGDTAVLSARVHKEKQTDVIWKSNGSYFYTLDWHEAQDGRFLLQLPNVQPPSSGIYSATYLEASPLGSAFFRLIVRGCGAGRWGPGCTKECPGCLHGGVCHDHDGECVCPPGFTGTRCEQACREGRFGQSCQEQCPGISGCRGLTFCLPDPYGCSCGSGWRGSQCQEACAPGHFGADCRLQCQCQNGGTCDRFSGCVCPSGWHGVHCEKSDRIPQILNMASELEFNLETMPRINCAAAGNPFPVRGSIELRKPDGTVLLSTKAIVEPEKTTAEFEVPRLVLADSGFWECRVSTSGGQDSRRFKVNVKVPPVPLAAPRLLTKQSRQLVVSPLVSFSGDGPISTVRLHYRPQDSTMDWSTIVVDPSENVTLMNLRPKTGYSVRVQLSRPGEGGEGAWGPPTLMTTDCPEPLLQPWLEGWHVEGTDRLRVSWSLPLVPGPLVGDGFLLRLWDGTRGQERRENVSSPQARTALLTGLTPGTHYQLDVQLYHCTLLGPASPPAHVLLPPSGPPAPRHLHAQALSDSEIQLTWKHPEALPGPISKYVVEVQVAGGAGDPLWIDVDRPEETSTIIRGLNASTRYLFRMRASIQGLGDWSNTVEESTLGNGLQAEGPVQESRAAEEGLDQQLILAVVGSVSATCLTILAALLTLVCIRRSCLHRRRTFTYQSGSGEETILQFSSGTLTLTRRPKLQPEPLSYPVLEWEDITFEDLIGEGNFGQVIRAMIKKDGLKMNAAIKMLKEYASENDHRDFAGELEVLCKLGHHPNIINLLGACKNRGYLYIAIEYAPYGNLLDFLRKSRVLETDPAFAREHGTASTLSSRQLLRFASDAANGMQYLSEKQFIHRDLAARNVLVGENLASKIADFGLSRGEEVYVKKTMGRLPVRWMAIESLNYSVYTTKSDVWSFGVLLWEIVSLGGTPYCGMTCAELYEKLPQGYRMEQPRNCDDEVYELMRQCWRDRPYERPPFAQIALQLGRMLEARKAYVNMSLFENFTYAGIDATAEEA

Tie complex (Tie1 and Tie2), sequence (P35590 22-1138, one chain of several): as the sequence (P35590 22-1138) above

Tie complex formation [1]: induce Tie complex formation
B1: M0044-B08: Tie1 ectodomain-binding antibody; variable domains SEQ ID NO:1 and 3 (antibody, V domains shown)
VL: QDIQMTQSPSFLSASVGDRVTISCRASQYISIYLNWYQQRPGEAPKLLINAASSLQSGDPSRFSGSGSGTDFTLTINSLQPDDFATYYCQQYKSYPLTFGEGTKVEIK
VH: EVQLLESGGGLVQPGGSLRLSCAASGFTFSAYGMGWVRQAPGKGLEWVSVISPSGGQTSYADSVKGRFTISRDNSKNTLYLQMNSLRAEDTALYYCAGGDRYGPLHYWGQGTLVTVSS
down modulation of Tie1 from the cell surface [2]: down modulation of Tie1 from the cell surface
